From patent publication US11505783B2, “Differentiation of human embryonic stem cells” (Janssen Biotech, Inc., priority 2007, dated 2022)
Read-outs that look alike come from different tables or passages of the source.

Key:
[1] = tested on: human embryonic stem cell line H1; conditions: end of stage 5, real-time PCR
Experimental: (§1) Cells of the human embryonic stem cell line H1, at passage 44 were cultured on […]™ coated dishes (1:30 dilution) and exposed to DMEM/F12 medium supplemented with 0.5% FBS, and 100 ng/ml Activin-A (R&D Systems, MN) plus 20 ng/ml WNT-3a (Catalog #1324-WN-002, R&D Systems, MN), for two days followed by treatment with DMEM/F12 media supplemented with 2% FBS and 100 ng/ml Activin-A (AA) for an additional two days. Next the cultures were treated with DMEM/F12+2% FBS+20 ng/ml FGF7+0.25 μm Cyclopamine-KAAD (#239804, Calbiochem, CA) for three days followed by four day incubation in DMEM/F12+1% B27 (Invitrogen, CA)+20 ng/ml FGF7+0.25 μm Cyclopamine-KAAD+2 μm Retinoic acid (RA) (Sigma, MO).
Next, cells were cultured in DMEM/F12+1% B27 (Invitrogen, CA)+50 ng/ml Exendin-4 (Sigma, MO)+1 μm DAPT (Calbiochem, CA) for six days followed by additional three days incubation in DMEM/F12+1% B27 (Invitrogen, CA)+50 ng/ml Exendin-4 (Sigma, MO)+50 ng/ml IGF (Peprotech, N.J.)+50 ng/ml HGF (R&D Systems, MN). Some of the cultures were treated with 1 μM of TGF-B receptor I kinase inhibitor (2-(3-(6-Methylpyridin-2-yl)-1H-pyrazol-4-yl)-1,5-naphthyridine) (an inhibitor of activin receptor-like kinase 5, #616452, Calbiochem, CA) at stage 4, stage 5, or stages 4 and 5.

[2] = tested on: human embryonic stem cell line H1; conditions: 1-10 μm at stages 4 and 5; end of stages 4 to 5; compared to controls (standard treatment)
Experimental: Next the cultures were treated with DMEM/F12+2% FBS+20 ng/ml FGF7+0.25 μm Cyclopamine-KAAD (#239804, Calbiochem, CA) for three days followed by four day incubation in DMEM/F12+1% B27 (Invitrogen, CA)+20 ng/ml FGF7+0.25 μm Cyclopamine-KAAD+2 μm Retinoic acid (RA) (Sigma, MO).
Next, cells were cultured in DMEM/F12+1% B27 (Invitrogen, CA)+50 ng/ml Exendin-4 (Sigma, MO)+1 μm DAPT (Calbiochem, CA) for six days followed by additional three days incubation in DMEM/F12+1% B27 (Invitrogen, CA)+50 ng/ml Exendin-4 (Sigma, MO)+50 ng/ml IGF (Peprotech, N.J.)+50 ng/ml HGF (R&D Systems, MN).

[3] = tested on: human embryonic stem cell line H1; conditions: end of stage 5, real-time PCR; remark: listed apart in the source
Experimental: as §1, with “51” for “44”
Next, the cells were cultured in DMEM/F12+1% B27 (Invitrogen, CA)+50 ng/ml Exendin-4 (Sigma, MO)+1 μm DAPT (Calbiochem, CA) for six days followed by additional three days incubation in DMEM/F12+1% B27 (Invitrogen, CA)+50 ng/ml Exendin-4 (Sigma, MO)+50 ng/ml IGF (Peprotech, N.J.)+50 ng/ml HGF (R&D Systems, MN). Some of the cultures were treated with 1 μM of the following compounds at either stage 3, stage 4, or stages 3+4: MEK/MAPK inhibitor (2′-Amino-3′-methoxyflavone) (PD98059, Calbiochem, CA), RAF kinase inhibitor (5-Iodo-3-R3,5-dibromo-4-hydroxyphenyl)methylenel-2-indolinone) (#553008, Calbiochem, CA), SMAD3 inhibitor (6,7-Dimethyl-2-((2E)-3-(1-methyl-2-phenyl-1Hpyrrolo[2,3-b]pyridin-3-yl-prop-2-enoyl))-1,2,3,4-tetrahydroisoquinoline) (#566405, Calbiochem, CA), AKT inhibitor (1L6-Hydroxymethyl-chiroinositol-2-(R)-2-O-methyl-3-O-octadecyl-sn-glycerocarbonate) (#124005, Calbiochem, CA), MEK inhibitor (#444937 Calbiochem, CA), and TGF-B receptor I inhibitor (2-(3-(6-Methylpyridin-2-yl)-1H-pyrazol-4-yl)-1,5-naphthyridine) (inhibits activin receptor-like kinase 5, #616452, Calbiochem, CA).

[4] = tested on: human embryonic stem cell line H1; assay: Real-time PCR of markers, Noggin at stage 3 with ALK5 inhibitor II at stages 4 and 5 (Example 6); type: cell-based
Experimental: Cells of the human embryonic stem cell line H1, at passage 41 were cultured on […] ™ coated dishes (1:30 dilution) and exposed to DMEM/F12 medium supplemented with 0.5% FBS, and 100 ng/ml Activin-A (R&D Systems, MN) plus 20 ng/ml WNT-3a (Catalog #1324-WN-002, R&D Systems, MN), for two days followed by treatment with DMEM/F12 media supplemented with 2% FBS and 100 ng/ml Activin-A (AA) for an additional two days. Next the cultures were treated with DMEM/F12+2% FBS+20 ng/ml FGF7+0.25 μm Cyclopamine-KAAD (#239804, Calbiochem, CA) for three days followed by four day incubation in DMEM/F12+1% B27 (Invitrogen, CA)+20 ng/ml FGF7+0.25 μm Cyclopamine-KAAD+2 μm Retinoic acid (RA) (Sigma, MO)+0-500 ng/ml of Noggin (R & D Systems, MN).

[5] = tested on: human embryonic stem cell line H1; assay: Real-time PCR of markers, Noggin at stages 3 and/or 4 with ALK5 inhibitor II at stages 4 and 5 (Example 7); type: cell-based
Text: FIGS. 8A-8D depict a phase contrast image of the cultures according to the above protocol. In some of the cultures, stage 5 was extended from 3 days to 21 days. By day 10-12 of culture in stage 5 media, there were distinct clusters of cells resembling human islets present throughout the culture plate. FIGS. 8A-8B show images of day 6 cultures in stage 5 while FIGS. 8C-8D show images of day 12 stage 5 cultures. Some of the clusters were manually removed, plated on 1:30 […]-coated plates in stage 5 media. After 2 days of incubation, the clusters were stained for insulin and glucagon. The majority of the cells in the clusters as shown in FIGS. 9A-9B were positive for human insulin. In order to further optimize the dose of the BMP inhibitor, Noggin; cultures were treated at stage 2-4 with 0, 10, 50, or 100 ng/ml of Noggin. FIG. 10 depicts expression of NGN3 at stage 4 for cultures treated with varying doses of Noggin at stages 2-4.

[6] = tested on: human embryonic stem cell line H1; assay: Real-time PCR of markers, Noggin at stages 3-4, Netrin-4 and ALK5 inhibitor II at stage 4 (Example 8); type: cell-based
[7] = 1 μM added at stage 4 or stages 4 and 5
[8] = 1 μM added at stage 4 or stages 3 and 4
[9] = Noggin at both stages 3 and 4, compared to untreated samples
[10] = omission of Noggin at stage 4, Netrin-4 plus Alk5 inhibitor added, end of stage 5

## Cc1cccc(-c2n[nH]cc2-c2ccc3ncccc3n2)n1 [ALK5 inhibitor II, 2-(3-(6-Methylpyridin-2-yl)-1H-pyrazol-4-yl)-1,5-naphthyridine]
[1]; [7]
  expression of PDX-1: marginally affecting
  expression of insulin, glucagon, NeuroD, and NKX2.2: significantly enhanced
[1]; 1 μM added only at stage 5
  expression of endocrine markers: marginally upregulated
[2]
  expression of insulin, glucagon, PDX-1 and NeuroD: significantly enhanced
[3]; [8]
  expression of PDX-1: marginally affecting
  expression of insulin, glucagon, NeuroD, and NKX2.2: significantly enhanced
[3]; 1 μM added only at stage 3
  expression of endocrine markers: marginally upregulated

B1: Noggin: recombinant human Noggin, BMP inhibitor (R & D Systems) (protein, UniProt Q13253 28-232, looked up)
Noggin: QHYLHIRPAPSDNLPLVDLIEHPDPIFDPKEKDLNETLLRSLLGGHYDPGFMATSPPEDRPGGGGGAAGGAEDLAELDQLLRQRPSGAMPSEIKGLEFSEGLAQGKKQRLSKKLRRKLQMWLWSQTFCPVLYAWNDLGSRFWPRYVKVGSCFSKRSCSVPEGMVCKPSKSVHLTVLRWRCQRRGGQRCGWIPIQYPIISECKCSC
[4]; 100 ng/ml at stage 3, compared to untreated samples
  expression of albumin and CDX2: significantly suppressing
[4]; 100 ng/ml at stage 3, end of stage 4, 1 μm ALK5 inhibitor II at stages 4 and 5
  expression of insulin and glucagon: marginally enhanced
[4]; 500 ng/ml at stage 3
  expression of PDX-1: did not affect
  expression of endocrine markers, along with albumin and CDX2: significantly diminish
[5]; 100 ng/ml Noggin at stage 3+4 plus ALK5 inhibitor II, stages 4-5
  expression of insulin and glucagons: dramatically enhanced
[5]; [9]
  expression of NGN3: significantly enhanced
  expression of albumin and CDX2: significantly suppressing
[5]; cultures treated at stage 2-4 with 0, 10, 50, or 100 ng/ml
  Noggin concentration resulting in maximal expression of NGN3 at stage 4: 50 to 100 ng/mL
[6]; [10]
  expression of NGN3, NKX2.2, and NeuroD: significantly reduce
  expression of insulin and glucagon: moderately affecting

B2: Netrin-4: netrin protein added at 100 ng/ml (R&D Systems) (protein, UniProt Q9HB63 19-628, looked up)
Netrin-4: GLSGVAGVSSRCEKACNPRMGNLALGRKLWADTTCGQNATELYCFYSENTDLTCRQPKCDKCNAAYPHLAHLPSAMADSSFRFPRTWWQSAEDVHREKIQLDLEAEFYFTHLIVMFKSPRPAAMVLDRSQDFGKTWKPYKYFATNCSATFGLEDDVVKKGAICTSKYSSPFPCTGGEVIFKALSPPYDTENPYSAKVQEQLKITNLRVQLLKRQSCPCQRNDLNEEPQHFTHYAIYDFIVKGSCFCNGHADQCIPVHGFRPVKAPGTFHMVHGKCMCKHNTAGSHCQHCAPLYNDRPWEAADGKTGAPNECRTCKCNGHADTCHFDVNVWEASGNRSGGVCDDCQHNTEGQYCQRCKPGFYRDLRRPFSAPDACKPCSCHPVGSAVLPANSVTFCDPSNGDCPCKPGVAGRRCDRCMVGYWGFGDYGCRPCDCAGSCDPITGDCISSHTDIDWYHEVPDFRPVHNKSEPAWEWEDAQGFSALLHSGKCECKEQTLGNAKAFCGMKYSYVLKIKILSAHDKGTHVEVNVKIKKVLKSTKLKIFRGKRTLYPESWTDRGCTCPILNPGLEYLVAGHEDIRTGKLIVNMKSFVQHWKPSLGRKVMDILKRECK
[6]; 100 ng/ml Netrin-4 and ALK5 inhibitor II at stage 4 plus 100 ng/ml Noggin at stage 3 and 4
  expression of NGN3, NeuroD, and Pax4: dramatically enhanced
